The record followed here is patent publication US20240360218A1 (KYMAB, published 2024).

One experiment concerns the target T1, PD-L1-Fc (R&D Systems) (UniProt Q9NZQ7 19-239).
T1 construct: not shown: Fc part of the bought fusion protein, not described
Kind of experiment: plate ELISA/DELFIA (Example 5d): biotinylated antibody on plate-bound PD-L1-Fc, streptavidin-Eu, TRF at 615 nm. As to the method: Excess protein was removed by washing with PBS-Tween (0.1% v/v) and the wells were blocked with 250 μL/well Pierce Protein Free Blocking Buffer (Thermo, 37572) for 1 hour, after which plates were washed as described previously. […] 100 μL each antibody dilution was added to the plates in duplicate and incubated for 1 hour at room temperature, before washing as stated above. Antibody binding was detected using streptavidin labelled Europium (Perkin Elmer) diluted 1/1000 in DELFIA Assay buffer (Perkin Elmer). Plates were washed with TBS (Tris buffered saline)-Tween (0.1% v/v) and 50 μL/well of DELFIA Enhancement solution (Perkin Elmer) was added to the plate. Time-resolved fluorescence was measured at 615 nm on an Envision plate reader (PerkinElmer).

For experiment [1], the target named is T2, hPD-L1-his (in-house generated recombinant human PD-L1, his-tagged) (human, UniProt Q9NZQ7 19-238, limits assumed, biotinylated in the ELISA and AlphaScreen assays (site not stated)).
T2 construct: also called biotinylated hPD-L1-his; biotinylated His-PD-L1
Briefly: SPR (ProteOn), anti-human Fc capture, 25 C. As to the method: Label-free surface plasmon resonance (SPR) analysis was carried out on the ProteOn XPR36 (BioRad) array SPR machine. […] The data was analysed using the 1:1 model inherent to the ProteOn XPR36 analysis software.
SPR analysis was performed as per Example 4 with the following amendments: analysis was performed at 37° C. as well as 25° C. to increase the stringency of the assay.

T1 sequence (Q9NZQ7 19-239 limits assumed): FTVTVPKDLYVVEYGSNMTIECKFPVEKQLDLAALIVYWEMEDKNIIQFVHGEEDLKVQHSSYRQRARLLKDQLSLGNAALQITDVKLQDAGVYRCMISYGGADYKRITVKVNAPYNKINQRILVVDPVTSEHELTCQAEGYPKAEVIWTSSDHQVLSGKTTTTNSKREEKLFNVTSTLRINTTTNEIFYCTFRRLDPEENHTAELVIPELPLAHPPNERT
T2 sequence (Q9NZQ7 19-238 limits assumed): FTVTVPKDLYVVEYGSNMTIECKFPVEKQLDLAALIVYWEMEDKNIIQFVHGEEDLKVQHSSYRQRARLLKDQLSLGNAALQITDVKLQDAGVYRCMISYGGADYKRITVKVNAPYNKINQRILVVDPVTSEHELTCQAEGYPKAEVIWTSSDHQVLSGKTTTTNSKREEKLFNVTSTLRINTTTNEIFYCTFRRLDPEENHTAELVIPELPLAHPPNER

B1: 1D05 (antibody, V domains shown)
VH: EVQLVESGGGLVQPGRSLRLSCAASGFTFDDYAMHWVRQVPGKGLEWVSGISWIRTGIGYADSVKGRFTIFRDNAKNSLYLQMNSLRAEDTALYYCAKDMKGSGTYGGWFDTWGQGTLVTVSS
VL: not shown
notes: kappa light chain; also called clone 1D05; anti-PD-L1 antibody 1D05
What is called EC50 (read off the curve) is the concentration that produces a half-maximal response. As to B1, in the experiment with PD-L1-Fc (R&D Systems), the “EC50 (read off the curve)” value was around 0.4 nM.

B2: 413G05 (antibody, human IgG1, V domains shown)
VH: QVQLVESGGGLVKPGGSLRLSCAASGFTFSDYYMSWIRQVPGKGLEWVSYISTSGSTIYYADSVKGRFTISRDNAKNSLYLQMNSLRAEDAAVYHCARGITGTNFYHYGLGVWGQGTTVTVSS
VL: DIQMTQSPSSVSASVGDRVTITCRASQGINSWLAWYQQKPGKAPKLLIYAASTLQSGVPSRFSGSGSGADFTLTISSLQPEDFATYYCQQVNSFPLTFGGGTKVEIK
For orientation: koff means a measure of how fast the partners let go of each other. Turning to B2, the dissociation rate constant (koff) in experiment [1] amounted to 6.23e-05 s⁻¹.

B3: 84G09 (antibody, human IgG1, V domains shown)
VH: EVQLVESGGGLVQPGRSLRLSCAASGFTFDDYAMHWVRQTPGKGLEWVSGISWKSNIIGYADSVKGRFTISRDNAKNSLYLQMNSLRAEDTALYYCARDITGSGSYGWFDPWGQGTLVTVSS
VL: DIQMTQSPSSLSASVGDRVTITCRASQSISSYLNWYQQKPGKAPKPLIYVASSLQSGVPSSFSGSGSGTDFTLTISSLQPEDFATYYCQQSYSNPITFGQGTRLEIK
notes: kappa light chain; also called clone 84G09
In the case of B3, the “EC50 (read off the curve)” value in the experiment with PD-L1-Fc (R&D Systems) was around 0.4 nM.
